Experimental data from US20090093061A1.

Assays:
Experiment in all cases: GroEL-490 bead column capture of denatured serum, ATP elution, LC-MS-MS
[1] = biological target: leucine-rich repeat-containing G protein-coupled receptor 6 (Homo sapiens) (UniProt Q9HBX8)
[2] = biological target: retinoblastoma binding protein 8 isoform b (Homo sapiens) (UniProt Q99708)
[3] = biological target: kinesin family member 23 isoform 1 (Homo sapiens) (UniProt Q02241)
[4] = biological target: alpha 1 type IX collagen isoform 1 precursor (Homo sapiens) (UniProt P20849)
[5] = biological target: tripartite motif protein TRIM14 isoform alpha (Homo sapiens) (UniProt Q14142)
Chain of tripartite motif protein TRIM14 isoform alpha (Homo sapiens) (Q14142 whole entry, canonical isoform): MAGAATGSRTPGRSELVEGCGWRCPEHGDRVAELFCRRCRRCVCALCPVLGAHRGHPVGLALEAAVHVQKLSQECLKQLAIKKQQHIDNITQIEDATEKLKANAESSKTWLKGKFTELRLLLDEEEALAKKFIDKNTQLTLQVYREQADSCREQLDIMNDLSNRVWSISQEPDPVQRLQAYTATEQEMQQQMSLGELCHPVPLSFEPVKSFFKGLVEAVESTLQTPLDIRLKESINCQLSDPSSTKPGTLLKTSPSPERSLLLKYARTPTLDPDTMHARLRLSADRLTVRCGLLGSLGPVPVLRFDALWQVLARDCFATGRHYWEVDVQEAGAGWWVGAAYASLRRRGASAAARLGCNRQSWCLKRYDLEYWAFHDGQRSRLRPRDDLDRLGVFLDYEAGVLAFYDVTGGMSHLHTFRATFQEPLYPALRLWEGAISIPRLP

[6] = biological target: hematopoletic protein 1 (Homo sapiens) (UniProt P55160)
Chain of hematopoletic protein 1 (Homo sapiens) (P55160 whole entry, canonical isoform): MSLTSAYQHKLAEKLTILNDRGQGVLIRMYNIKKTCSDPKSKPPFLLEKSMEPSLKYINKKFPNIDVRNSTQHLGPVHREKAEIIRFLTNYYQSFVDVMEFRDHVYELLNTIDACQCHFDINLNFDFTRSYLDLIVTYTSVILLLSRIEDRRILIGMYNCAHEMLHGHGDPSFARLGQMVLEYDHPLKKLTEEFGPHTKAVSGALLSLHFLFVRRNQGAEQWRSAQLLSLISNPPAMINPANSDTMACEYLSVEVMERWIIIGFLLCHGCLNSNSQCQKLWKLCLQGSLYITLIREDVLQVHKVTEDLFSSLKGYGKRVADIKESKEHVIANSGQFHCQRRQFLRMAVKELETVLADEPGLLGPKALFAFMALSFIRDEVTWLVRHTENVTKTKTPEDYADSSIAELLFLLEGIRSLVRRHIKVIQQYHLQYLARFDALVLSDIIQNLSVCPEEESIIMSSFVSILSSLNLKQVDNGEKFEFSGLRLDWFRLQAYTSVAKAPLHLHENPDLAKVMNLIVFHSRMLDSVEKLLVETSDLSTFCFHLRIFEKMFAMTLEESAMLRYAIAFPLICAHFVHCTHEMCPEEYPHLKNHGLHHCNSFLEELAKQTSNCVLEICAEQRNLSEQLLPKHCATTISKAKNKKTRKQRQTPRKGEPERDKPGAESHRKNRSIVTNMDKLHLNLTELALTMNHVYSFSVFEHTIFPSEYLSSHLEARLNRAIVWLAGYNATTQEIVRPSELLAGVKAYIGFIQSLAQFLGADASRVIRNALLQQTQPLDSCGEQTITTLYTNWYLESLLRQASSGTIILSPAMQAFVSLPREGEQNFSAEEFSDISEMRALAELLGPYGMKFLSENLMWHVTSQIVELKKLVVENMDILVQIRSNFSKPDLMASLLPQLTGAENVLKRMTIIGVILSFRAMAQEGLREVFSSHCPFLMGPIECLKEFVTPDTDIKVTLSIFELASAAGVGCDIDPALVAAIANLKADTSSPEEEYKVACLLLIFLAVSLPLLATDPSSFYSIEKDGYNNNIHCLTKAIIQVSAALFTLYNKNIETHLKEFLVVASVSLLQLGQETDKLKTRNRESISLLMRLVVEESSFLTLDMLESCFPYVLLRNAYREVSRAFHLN

[7] = biological target: phosphoinositide-specific phospholipase C beta 1 isoform a (UniProt Q9NQ66)
Chain of phosphoinositide-specific phospholipase C beta 1 isoform a (Q9NQ66 whole entry, canonical isoform): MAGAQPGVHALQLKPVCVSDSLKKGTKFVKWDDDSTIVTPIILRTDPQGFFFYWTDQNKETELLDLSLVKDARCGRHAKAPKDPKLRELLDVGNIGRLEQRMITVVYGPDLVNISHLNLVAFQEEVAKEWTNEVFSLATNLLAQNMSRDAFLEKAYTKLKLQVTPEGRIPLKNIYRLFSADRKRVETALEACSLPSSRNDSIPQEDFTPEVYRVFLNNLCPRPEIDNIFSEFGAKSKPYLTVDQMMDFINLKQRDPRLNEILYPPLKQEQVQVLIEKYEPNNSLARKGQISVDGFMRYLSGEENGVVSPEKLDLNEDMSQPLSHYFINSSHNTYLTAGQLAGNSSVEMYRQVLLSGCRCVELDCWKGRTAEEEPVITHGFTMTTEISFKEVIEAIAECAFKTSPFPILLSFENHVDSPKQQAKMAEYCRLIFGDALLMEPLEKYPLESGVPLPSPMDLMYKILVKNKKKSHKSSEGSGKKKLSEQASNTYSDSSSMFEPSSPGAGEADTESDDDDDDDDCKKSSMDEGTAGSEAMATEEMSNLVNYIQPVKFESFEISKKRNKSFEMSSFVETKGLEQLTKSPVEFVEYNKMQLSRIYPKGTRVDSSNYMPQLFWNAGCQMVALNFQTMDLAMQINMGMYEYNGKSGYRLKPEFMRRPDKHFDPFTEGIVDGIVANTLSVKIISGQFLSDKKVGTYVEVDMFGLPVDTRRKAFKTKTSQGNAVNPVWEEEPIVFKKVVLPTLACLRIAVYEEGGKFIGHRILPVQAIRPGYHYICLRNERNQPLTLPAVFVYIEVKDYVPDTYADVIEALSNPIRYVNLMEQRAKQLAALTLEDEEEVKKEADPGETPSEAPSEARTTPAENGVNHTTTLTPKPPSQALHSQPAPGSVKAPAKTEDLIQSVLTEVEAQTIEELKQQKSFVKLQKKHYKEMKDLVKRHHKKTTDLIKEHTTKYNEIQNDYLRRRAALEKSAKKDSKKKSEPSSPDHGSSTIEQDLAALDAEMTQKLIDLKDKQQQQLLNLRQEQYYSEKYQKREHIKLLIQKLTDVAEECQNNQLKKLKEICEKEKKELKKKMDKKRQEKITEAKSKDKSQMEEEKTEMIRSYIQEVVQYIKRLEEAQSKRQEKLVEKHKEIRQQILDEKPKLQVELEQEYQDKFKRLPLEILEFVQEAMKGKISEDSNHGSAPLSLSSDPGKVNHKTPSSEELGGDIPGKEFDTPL

[8] = biological target: apical protein of Xenopus-like (Homo sapiens) (UniProt Q13796)
[9] = biological target: KIAA0804 protein (Homo sapiens) (UniProt Q8N3P4)
[10] = biological target: extra spindle poles like 1 (Homo sapiens) (UniProt Q14674)
[11] = biological target: H factor 1 (complement) (Homo sapiens) (UniProt P08603)
[12] = biological target: albumin precursor (Homo sapiens) (UniProt P02768)
[13] = biological target: H2A histone family, member X (Homo sapiens) (UniProt P16104)
[14] = biological target: hypothetical protein FLJ12178 (Homo sapiens)
[15] = biological target: hemicentin (Homo sapiens) (UniProt Q96RW7)
[16] = biological target: DNA fragmentation factor, 45 kD, alpha polypeptide (Homo sapiens) (UniProt O00273)
[17] = biological target: target of myb1 (Homo sapiens) (UniProt O60784)
[18] = biological target: baculoviral IAP repeat-containing 6 (Homo sapiens) (UniProt Q9NR09)
[19] = biological target: hypothetical protein XP_378639 (Homo sapiens)
[20] = biological target: angiomotin like 2 (Homo sapiens) (UniProt Q9Y2J4)
[21] = biological target: alpha 2 macroglobulin precursor (Homo sapiens) (UniProt P01023)
[22] = biological target: similar to BC331191_1 (Homo sapiens)
[23] = biological target: ectonucleoside triphosphate diphosphohydrolase 7 (Homo sapiens) (UniProt Q9NQZ7)
Chain of ectonucleoside triphosphate diphosphohydrolase 7 (Homo sapiens) (Q9NQZ7 whole entry): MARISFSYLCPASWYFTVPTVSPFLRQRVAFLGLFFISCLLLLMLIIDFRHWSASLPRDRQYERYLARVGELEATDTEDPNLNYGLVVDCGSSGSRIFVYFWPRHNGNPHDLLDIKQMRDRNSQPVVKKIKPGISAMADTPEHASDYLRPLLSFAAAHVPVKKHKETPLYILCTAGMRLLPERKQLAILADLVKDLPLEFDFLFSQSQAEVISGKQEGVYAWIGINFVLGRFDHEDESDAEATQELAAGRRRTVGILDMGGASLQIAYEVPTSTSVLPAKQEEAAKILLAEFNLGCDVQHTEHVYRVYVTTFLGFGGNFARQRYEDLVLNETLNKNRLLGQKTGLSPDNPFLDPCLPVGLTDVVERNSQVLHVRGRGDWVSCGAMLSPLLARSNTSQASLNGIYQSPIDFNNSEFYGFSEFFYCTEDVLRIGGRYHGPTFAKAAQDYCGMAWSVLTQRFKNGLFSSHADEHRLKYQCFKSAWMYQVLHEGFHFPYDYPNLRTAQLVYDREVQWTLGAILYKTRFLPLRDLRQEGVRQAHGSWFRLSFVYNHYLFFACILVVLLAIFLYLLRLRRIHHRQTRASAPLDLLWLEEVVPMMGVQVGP

[24] = biological target: neutral sphingomyelinase (N-SMase) activation associated factor (Homo sapiens) (UniProt Q92636)
[25] = biological target: Rho GTPase activating protein 5 (Homo sapiens) (UniProt Q13017)
dendrin (Homo sapiens) = dendrin (Homo sapiens) (UniProt O94850)
[26] = biological target: titin isoform N2-A (Homo sapiens) (UniProt Q8WZ42)
[27] = biological target: NYD-SP11 protein (Homo sapiens)
[28] = biological target: titin isoform novex-2 (Homo sapiens) (UniProt Q8WZ42)
[29] = biological target: chondroitin sulfate proteoglycan 6 (bamacan) (Homo sapiens) (UniProt Q9UQE7)
[30] = biological target: synovial sarcoma, X breakpoint 2 isoform a (Homo sapiens) (UniProt Q16385)
Chain of synovial sarcoma, X breakpoint 2 isoform a (Homo sapiens) (Q16385 other isoform, or with tags, fused parts or gaps limits assumed): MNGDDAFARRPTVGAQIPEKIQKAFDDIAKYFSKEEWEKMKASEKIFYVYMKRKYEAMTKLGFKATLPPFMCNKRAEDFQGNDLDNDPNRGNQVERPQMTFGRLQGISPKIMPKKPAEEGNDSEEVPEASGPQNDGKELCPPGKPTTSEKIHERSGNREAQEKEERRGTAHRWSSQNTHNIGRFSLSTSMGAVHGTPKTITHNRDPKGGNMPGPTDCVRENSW

[31] = biological target: transferrin (Homo sapiens) (UniProt P02787)
Chain of transferrin (Homo sapiens) (P02787 20-698 limits assumed): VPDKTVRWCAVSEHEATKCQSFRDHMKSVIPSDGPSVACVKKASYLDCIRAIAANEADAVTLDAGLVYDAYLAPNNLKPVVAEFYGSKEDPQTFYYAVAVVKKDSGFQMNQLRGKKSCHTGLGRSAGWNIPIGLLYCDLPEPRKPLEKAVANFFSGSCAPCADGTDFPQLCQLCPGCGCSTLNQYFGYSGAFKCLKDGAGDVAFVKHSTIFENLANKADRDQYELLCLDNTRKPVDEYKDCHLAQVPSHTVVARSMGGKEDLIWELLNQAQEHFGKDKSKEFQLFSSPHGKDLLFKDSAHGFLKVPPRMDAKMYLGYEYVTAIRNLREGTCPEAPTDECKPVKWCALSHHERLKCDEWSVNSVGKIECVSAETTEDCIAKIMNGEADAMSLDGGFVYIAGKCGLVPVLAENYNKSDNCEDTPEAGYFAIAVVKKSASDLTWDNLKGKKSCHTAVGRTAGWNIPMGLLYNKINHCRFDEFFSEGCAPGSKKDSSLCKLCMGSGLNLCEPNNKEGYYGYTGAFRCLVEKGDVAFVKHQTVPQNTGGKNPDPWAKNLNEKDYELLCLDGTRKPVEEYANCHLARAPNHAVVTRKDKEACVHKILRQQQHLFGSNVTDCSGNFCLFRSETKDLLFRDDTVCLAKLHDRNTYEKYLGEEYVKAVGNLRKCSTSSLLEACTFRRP

[32] = biological target: brefeldin A-inhibited guanine nucleotide-exchange protein 1 (Homo sapiens) (UniProt Q9Y6D6)

Chain of GroEL having Aspartate 490 substituted with Cysteine, biotinylated and conjugated onto NeutrAvidin beads (A1AJ51 whole entry D490C): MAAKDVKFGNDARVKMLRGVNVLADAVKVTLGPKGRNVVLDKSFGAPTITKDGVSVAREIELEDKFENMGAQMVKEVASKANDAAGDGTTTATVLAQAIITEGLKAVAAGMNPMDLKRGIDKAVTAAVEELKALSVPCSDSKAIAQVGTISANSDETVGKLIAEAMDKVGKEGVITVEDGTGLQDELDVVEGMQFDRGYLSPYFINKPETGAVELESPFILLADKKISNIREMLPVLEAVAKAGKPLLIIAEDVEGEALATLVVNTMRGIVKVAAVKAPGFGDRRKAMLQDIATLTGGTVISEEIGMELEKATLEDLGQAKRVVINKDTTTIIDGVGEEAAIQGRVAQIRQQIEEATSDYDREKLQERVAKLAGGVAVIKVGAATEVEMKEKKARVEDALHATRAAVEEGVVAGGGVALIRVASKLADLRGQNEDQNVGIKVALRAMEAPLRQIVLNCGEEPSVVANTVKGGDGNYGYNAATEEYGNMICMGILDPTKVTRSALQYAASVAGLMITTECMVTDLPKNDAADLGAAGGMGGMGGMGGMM

## GroEL having Aspartate 490 substituted with Cysteine, biotinylated and conjugated onto NeutrAvidin beads (from UniProt A1AJ51 1-548)
[1]
  Spectrum Count: 9 count
[2]
  Spectrum Count: 22 count
[3]
  Spectrum Count: 53 count
[4]
  Spectrum Count: 10 count
[5]
  Spectrum Count: 21 count
[6]
  Spectrum Count: 35 count
[7]
  Spectrum Count: 34 count
[8]
  Spectrum Count: 11 count
[9]
  Spectrum Count: 13 count
[10]
  Spectrum Count: 9 count
[11]
  Spectrum Count: 12 count
[12]
  Spectrum Count: 475 count
[13]
  Spectrum Count: 41 count
[14]
  Spectrum Count: 9 count
[15]
  Spectrum Count: 10 count
[16]
  Spectrum Count: 14 count
[17]
  Spectrum Count: 30 count
[18]
  Spectrum Count: 113 count
[19]
  Spectrum Count: 14 count
[20]
  Spectrum Count: 17 count
[21]
  Spectrum Count: 43 count
[22]
  Spectrum Count: 19 count
[23]
  Spectrum Count: 41 count
[24]
  Spectrum Count: 9 count
[25]
  Spectrum Count: 12 count
Dendrin (Homo sapiens)
  Spectrum Count: 14 count
[26]
  Spectrum Count: 16 count
[27]
  Spectrum Count: 11 count
[28]
  Spectrum Count: 56 count
[29]
  Spectrum Count: 9 count
[30]
  Spectrum Count: 21 count
[31]
  Spectrum Count: 60 count
[32]
  Spectrum Count: 11 count
